Laboratory results from publication PMC8809517, “Cofactor-independent RNA editing by a synthetic S-type PPR protein”.

Tests used:
Assay in all cases: high-throughput RNA pulldown from lysate on Ni-NTA beads; HRP: 50 mM Tris pH 8, 150 mM NaCl, 1 mM beta-mercaptoethanol, 50 ug/ml BSA, 3 ug/ml yeast RNA, 0.5% heparin; ITC and FP: Tris pH 8, 200 mM KCl, 5% glycerol; MST: 50 mM Tris pH 8, 200 mM NaCl, 1 mM DTT, BSA, heparin, 0.05% Tween 20
Conditions in all cases: tags: N-terminal His-eGFP
[1] = target: T1, GFP-9S library array, motif 4 ND N98G;D124G (synthetic construct, N98G;D124G)
T1 chain: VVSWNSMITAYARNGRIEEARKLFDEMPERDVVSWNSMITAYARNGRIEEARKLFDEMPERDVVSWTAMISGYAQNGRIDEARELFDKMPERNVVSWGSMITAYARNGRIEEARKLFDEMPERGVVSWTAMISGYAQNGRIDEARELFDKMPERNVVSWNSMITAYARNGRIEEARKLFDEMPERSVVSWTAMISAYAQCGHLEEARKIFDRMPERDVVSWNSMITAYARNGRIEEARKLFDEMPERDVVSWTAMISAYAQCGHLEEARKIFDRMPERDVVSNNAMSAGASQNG

[2] = target: T2, GFP-9S library array, motif 4 ND N98A;D124T (synthetic construct, N98A;D124T)
T2 chain: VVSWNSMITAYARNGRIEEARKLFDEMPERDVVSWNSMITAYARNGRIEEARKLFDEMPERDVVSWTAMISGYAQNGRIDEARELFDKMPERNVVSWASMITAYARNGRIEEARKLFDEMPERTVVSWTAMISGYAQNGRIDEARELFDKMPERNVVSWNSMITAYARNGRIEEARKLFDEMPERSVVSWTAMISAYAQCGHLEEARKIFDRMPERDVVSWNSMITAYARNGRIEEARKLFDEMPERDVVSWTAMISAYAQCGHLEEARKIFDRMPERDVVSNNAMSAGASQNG

[3] = target: T3, GFP-9S library array, motif 4 ND N98W;D124K (synthetic construct, N98W;D124K)
T3 chain: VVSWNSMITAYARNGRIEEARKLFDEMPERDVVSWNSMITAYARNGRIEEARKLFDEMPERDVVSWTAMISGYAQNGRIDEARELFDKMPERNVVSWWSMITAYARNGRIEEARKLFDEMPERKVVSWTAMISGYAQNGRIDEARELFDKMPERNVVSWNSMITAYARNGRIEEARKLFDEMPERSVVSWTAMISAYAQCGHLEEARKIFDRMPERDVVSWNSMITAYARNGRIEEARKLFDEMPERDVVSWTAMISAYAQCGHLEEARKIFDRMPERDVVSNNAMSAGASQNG

[4] = target: T4, GFP-9S library array, motif 4 ND N98T;D124Q (synthetic construct, N98T;D124Q)
T4 chain: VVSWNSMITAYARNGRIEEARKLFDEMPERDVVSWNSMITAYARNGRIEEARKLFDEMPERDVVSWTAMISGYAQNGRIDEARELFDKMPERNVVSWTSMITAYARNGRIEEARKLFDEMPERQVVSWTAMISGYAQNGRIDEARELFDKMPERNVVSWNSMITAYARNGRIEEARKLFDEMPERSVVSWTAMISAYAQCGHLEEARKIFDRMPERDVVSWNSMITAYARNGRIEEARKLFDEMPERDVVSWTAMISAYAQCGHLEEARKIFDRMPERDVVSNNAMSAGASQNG

[5] = target: T5, GFP-9S library array, motif 4 ND N98C;D124E (synthetic construct, N98C;D124E)
T5 chain: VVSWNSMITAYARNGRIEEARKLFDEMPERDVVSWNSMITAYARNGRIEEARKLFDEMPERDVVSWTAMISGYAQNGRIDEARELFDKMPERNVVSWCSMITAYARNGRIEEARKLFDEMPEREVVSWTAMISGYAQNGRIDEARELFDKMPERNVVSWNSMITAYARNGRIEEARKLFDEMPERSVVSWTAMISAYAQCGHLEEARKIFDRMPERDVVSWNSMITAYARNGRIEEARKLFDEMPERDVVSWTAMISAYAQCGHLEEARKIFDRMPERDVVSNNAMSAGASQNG

B1: IR-rpoA-U (ssRNA)
RNA: AUUAUACGUGA
Kd ([1]; label: 5' IRDye 800CW): 95.3 nM | Kd ([2]; label: 5' IRDye 800CW): 68.9 nM | Kd ([3]; label: 5' IRDye 800CW): 154 nM | Kd ([4]; label: 5' IRDye 800CW): 194 nM | Kd ([5]; label: 5' IRDye 800CW): 170 nM

B2: Cy5-rpoA (ssRNA)
RNA: AUUACACGUGA
Kd ([1]; label: 5' Cy5): 92 nM | Kd ([2]; label: 5' Cy5): 102 nM | Kd ([3]; label: 5' Cy5): 72.6 nM | Kd ([4]; label: 5' Cy5): 157 nM | Kd ([5]; label: 5' Cy5): 503 nM

B3: Cy5-rpoA-G (ssRNA)
RNA: AUUAGACGUGA
Kd ([1]; label: 5' Cy5): 95.2 nM | Kd ([2]; label: 5' Cy5): 107 nM | Kd ([3]; label: 5' Cy5): 48.1 nM | Kd ([4]; label: 5' Cy5): 128 nM | Kd ([5]; label: 5' Cy5): 39.5 nM

B4: IR-rpoA-A (ssRNA)
RNA: AUUAAACGUGA
Kd ([1]; label: 5' IRDye 800CW): 49.9 nM | Kd ([2]; label: 5' IRDye 800CW): 90.7 nM | Kd ([3]; label: 5' IRDye 800CW): 177 nM | Kd ([4]; label: 5' IRDye 800CW): 107 nM | Kd ([5]; label: 5' IRDye 800CW): 146 nM
